Series [1] has as its system human breast cancer cell lines MDA-MB-134, T-47D, BT-474 and MCF-7. As to the kind of experiment: TUNEL assay, apoptosis by DNA fragmentation in breast cancer cell lines. The series is classed as cell-based. On the procedure:
The human breast cancer cell lines MDA-MB-134, T-47D, BT-474 and MCF-7 were obtained from ATCC. These breast cancer cell lines were chosen based on their PRLR levels. The cell line T-47D had the highest PRLR level followed by MDA-MB-134, BT-474, MCF-7 in decreasing order of PRLR levels (Peirce S and Chen W Y., 2001, J. Endocrinol. 171:R1-4).
T-47D cells obtained from ATCC were grown in RPMI 1640 (phenol red free), supplemented with 10% FBS (GIBCO BRL). BT-474 cells were grown in RPMI 1640 medium (phenol red free) supplemented with 10% FBS and ATCC recommended supplements. MCF-7 cells were grown in DMEM medium (phenol red free), supplemented with 10% FBS. The cells were grown at 37° C. in a humid atmosphere in the presence of 5% CO2. The MDA-MB-134 cells were grown in Leibovitz's L-15 medium supplemented with 20% FBS and grown in CO2 free atmosphere. The breast cancer cells were trypsinized (0.02% Trypsin—EDTA) and grown in their respective media (phenol red free) supplemented with 10% CSS (Charcoal stripped serum) for a week. Subsequently the cells were trypsinized again and plated onto an 8 chambered slide system (Lab Tek II) at a confluence of 60-70% per chamber. The next day treatments were performed on the breast cancer cells using their respective media (phenol red free), supplemented with 1% CSS. The MDA-MB-134 VI cells were grown in phenol red containing medium, but with the same serum conditions as the other breast cancer cells.
(§1) Terminal deoxynucleotidyl transferase mediated dUTP nick end labeling (TUNEL) assay. Nicks of the fragmented DNA are labeled at their 3-OH ends. The fluorescein-labeled dUTP is incorporated at the 3-OH ends by using the enzyme terminal deoxynucleotidyl transferase. After the assigned period of treatment the chambers were dismantled as per the manufacturer's instructions and the TUNEL assay (Apoptosis detection system, Fluorescein-Promega) was performed as per the manufacturer's instructions. The slide was examined under a FITC filter using an Olympus IX 70 microscope system.

A further series deals with T47D cells. As to the kind of experiment: Cell proliferation assay (cell counting), comparison with estrogen and tamoxifen. The series is classed as cell-based, human. On the procedure:
Cell proliferation assays. hPRLA was tested for its ability to inhibit breast cancer cell proliferation in tissue culture. The human breast cancer cells were grown in corresponding culture media according to ATCC recommendations. Cells were maintained at 37° C. in a humidified atmosphere of 5% CO2 in air. The assay conditions were essentially as described by Ginsburg and Vonderharr (Cancer Res., 55:2591-2595 (1995)). For individual growth experiments, cells were plated in 12 well culture plates at a density of approximately 2×10^4/ml, 1 ml/well. Cells were then allowed to attach for one day (T-47D, MCF-7, HTB19, and HTB20 cells, except for HTB 123, which is a suspension cells), then the overlying media was removed and changed to serum-free conditions with media containing ITS (insulin-transferring-selenium-BSA-linoleic acid culture supplement; Collaborative Research Bedford, Mass.). Varying concentrations of hPRL alone or in combination with hPRLA were introduced. After an additional three days in culture, cells were harvested after brief trypsinization and counted in a cell counter.
For certain experiments, a mixed cell culture assay was used. In this assay, breast cancer cells were co-cultured with expressor cells which had been transfected with nucleic acid encoding PRL or a PRL variant and expressing those recombinant proteins. By varying the number of expressor cells, the amount of PRL or PRL variant present in the mixed cell culture was increased or decreased. A fixed number of breast cancer cells (T47D) were added to wells of a multi-well cell culture plate. In certain wells, which served as a control, no expresser cells were added. Then, increasing numbers of expresser cells (transfected L cells expressing either HPRL (L-PRL) or hPRLA (L-PRLA)) were added to breast cancer cell-containing wells to create mixed cultures. The same numbers of expressor cells were cultured in parallel (without T47D cells) to serve as controls. After culturing under standard conditions for a period of time, the number of cells present in the wells was counted, and the number of L cells in the corresponding control culture was subtracted. The resulting number could then be compared to the number of T47D cells in the T47D control culture to evaluate the effects of the recombinant product on breast cancer cell proliferation.

The test system of another series is prostate cancer cells. In words: TUNEL assay, apoptosis in prostate cancer cells. The series is classed as cell-based. To be noted: two prostate cancer cells, 250 ng, 24 hours. On the procedure:
as §1
The samples were in duplicate and each sample constituted about 2 million cells.

The conditions of series [2]: in vivo.
The nature of series [3]: Preclinical safety in animals. Format: in vivo. To be noted: mice and rabbits, even at high doses. The source says:
Previously, the inventors developed a hPRLR antagonist, G129R. G129R is prolactin with a single amino acid substation; the glycine at position 129 of the native sequence is replaced with an arginine. G129R has anti-tumor effects in cultured human breast cancer cells and in nude mouse models.

For the next series, the system named is HER2. In words: HER2 phosphorylation, immunoprecipitation and Western blot (Example 11). Format: cell-based, human. To be noted: multiple breast cancer cells. An excerpt:
Human PRL signals via cell surface specific receptors that lead to JAK2/STAT/MAPK activation, which ultimately promotes cell proliferation. Phosphorylation of HER2 protein is a crucial step in the activation of its downstream signaling molecules such as Ras/MAPK cascade.
Immunoprecipitation experiments confirm the role of hPRL and G129R in regulation of phosphorylation of HER2 in multiple breast cancer cell lines. A panel of breast cancer cell lines with different levels of hPRLR and HER2 are treated with different doses of PRL (from ng/ml to ug/ml to establish a dose response curve) and terminated at the various time points (from 15 min to 24 hr to establish response time course). The optimal stimulatory dose and the response time courses are determined for each cell lines. Anti-HER2 antibody is used to immunoprecipitate HER2 in cell lysates and anti-phospho-HER2 antibody is used (Western blot) to identify the level of phosphorylated Her2 in response to the treatment.

Series [4] relates to STAT5 phosphorylation in T-47D human breast cancer cells. As to the kind of experiment: hPRL induction of tyrosine phosphorylation of STAT5 protein. Format: cell-based. An excerpt:
Assay of hPRL induction of tyrosine phosphorylation of STAT5 protein. […] Tyrosyl phosphorylation of STAT 5 is a receptor mediated event and is thought to be an important step in ligand-induced signal transduction (Wakao et al., EMBO J., 13:2182-2191 (1994); Kazansky et al., Mol. Endocrinol., 9:1598-1609 (1995); Waxman et al., J. Biol. Chem., 270:13262-13270 (1995)). This assay was used to evaluate the ability of hPRL and hPRLA to inhibit induction of STAT 5 phosphorylation by wild type PRL.
Briefly, human breast cancer cells were plated in 12-well plates. After pre-incubation in serum-free DMEM for 2-3 hours, the cells were exposed to various concentration of hPRL and hPRLA in serum-free DMEM. […]

For series [5], the system named is Stat5a/b phosphorylation in T-47D cells. As to the kind of experiment: Inhibition of phosphorylation of Stat5a/b, Western blot. To be noted: 48 hours, 10 μg, in the presence of hPRL 100 ng/ml (FIG. 6). Format: cell-based, human. On the procedure: FIG. 6. […] T-47D cells were cultured overnight at 60% confluency and were maintained in phenol red-free and serum-free RPMI-1640 for 72 hours before stimulation. […] Lane A is the control cells that are untreated. […] Activation of Stat5 was analyzed by WB with anti-phospho-specific antibodies in 50 μg protein extracts.

A further series has as its system T-47D cells. As to the kind of experiment: Cell proliferation, ViaCount reagent and Guava PCA cytometer (viable cells). Format: cell-based, human. The settings on record: 24 hours of treatment, G129R 1 μg/ml, HERCEPTIN 20 μg/ml (FIG. 3). The protocol: FIG. 3. […] The y-axis represents percent viable cells after each treatment.
This assay permits the determination of the number of total and viable cells in cultures. Cell proliferation was determined as a measure of the number of viable cells after 24 hours of treatment (FIG. 3).

Turning to `CC/C(=C(\c1ccc(O)cc1)c1ccc(OCCN(C)C)cc1)c1ccccc1` [4-OH-Tamoxifen, reference compound], the “apoptosis, DNA fragmentation” value in series [1] (T-47D, MCF-7 or BT-474 cells, concentration as high as 1 μM) is reported as “did not induce apoptosis”.

With `CC/C(=C(\c1ccccc1)c1ccc(OCCN(C)C)cc1)c1ccccc1` [tamoxifen, reference compound], the “proliferation of T47D cells relative to untreated control cultures” value in the series on T47D cells is given as “comparable inhibitory effect”.

estrogen [reference compound]: the “proliferation of T47D cells relative to untreated control cultures” value in the series on T47D cells is recorded as “increased proliferation”.

B1: G129R: hPRLR antagonist: prolactin in which the glycine at position 129 of the native sequence is replaced with an arginine (protein)
chain: LPICPGGAARCQVTLRDLFDRAVVLSHYIHNLSSEMFSEFDKRYTHGRGFITKAINSCHTSSLATPEDKEQAQQMNQKDFLSLIVSILRSWNEPLYHLVTEVRGMQEAPEAILSKAVEIEEQTKRLLERMELIVSQVHPETKENEIYPVWSGLPSLQMADEESRLSAYYNLLHCLRRDSHKIDNYLKLLKCRIIHNNNC
For the molecule B1, the “apoptosis detected by TUNEL assay” value with prostate cancer cells was “underwent apoptosis”. In [2], this molecule showed a half-life of 1 to 2 h. The safety in animals result in series [3] is recorded as “safe”. Moreover, the “phosphorylation of HER2” value with HER2 is on record as “able to specifically block HER2 phosphorylation”. Besides, in series [4], the “block of hPRL-induced phosphorylation of STAT5 proteins” value is “able to block the signal transduction induced by hPRL”. The “apoptosis, DNA fragmentation” value in [1] (250 ng, 24 hours treatment, all four PRLR positive breast cancer cell lines) was “induced apoptosis”. Moreover, the “DNA fragmentation in breast cancer cells” value in series [1] (after 2 hours of treatment, 50 ng/ml) is on record as “apparent”. Moreover, in the series with T47D cells, the “proliferation of T47D cells relative to untreated control cultures” value was “comparable inhibitory effect”. In series [5], the “inhibition of Stat5a/b phosphorylation” value is “inhibitory effect”. For the same molecule, in the series on T-47D cells, the “decrease in proliferative ability / cell number compared to untreated control cells” value turned out to be 21.5%.

B2: hPRL: human prolactin, wild type hormone, used as positive control and stimulus (protein)
chain: LPICPGGAARCQVTLRDLFDRAVVLSHYIHNLSSEMFSEFDKRYTHGRGFITKAINSCHTSSLATPEDKEQAQQMNQKDFLSLIVSILRSWNEPLYHLVTEVRGMQEAPEAILSKAVEIEEQTKRLLEGMELIVSQVHPETKENEIYPVWSGLPSLQMADEESRLSAYYNLLHCLRRDSHKIDNYLKLLKCRIIHNNNC
Turning to B2, in the series with HER2, the “phosphorylation of HER2” value is on record as “able to phosphorylate HER2”. The “proliferation of T47D cells relative to untreated control cultures” value in the series on T47D cells is “increased proliferation”.

The values are drawn from patent publication US8754031B2, “Use of prolactin receptor antagonists in combination with an agent that inactivates the HER2/neu signaling pathway” (Oncolix, Inc., priority 2004, dated 2014).
